This note sets out measurements from the RNAGym collection of RNA variant scans (doi:10.1073/pnas.2313332121).

The chains are these.
B1: TPR t1 (parent)
chain: GACCAAUCUGCCCUCAGAGCUCGAGAACAUCUUCGGAUGCAGAGGAGGCAGGCUUCGGUGGCGCGAUAGCGCCAACGUCCUCAACCUCCAAUGCAUCCCACCACAUGAUGAUGCCUGAAGAGCCUUGGUUUUUUG

The data set covers variants of B1. In words: polymerase ribozyme fitness, log enrichment relative to wild type (log ratio); higher = more active; in vitro selection for triplet polymerase activity. The essentials: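 Fitness compares each genotype's enrichment to that of the wild type on a logarithmic scale, averaging replicates with inverse-variance weights. The logarithm is base 2. Enrichment came from Illumina sequencing of input and output libraries after one triplicate round of in vitro selection, which included frozen incubation at −7 °C, of PCR-built, transcribed mutant libraries of each subunit of a heterodimeric triplet polymerase ribozyme. Only genotypes with ≥10 input reads and ≥1 read per output were kept.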
U14A A37C C40A G69U: the “polymerase ribozyme fitness (log ratio)” value is -4.24.
In the case of C13U G58A C73U, the “polymerase ribozyme fitness (log ratio)” value was -0.277.
The same measure for U14A C31U U32G C53G C80A C104U G120C G135U: -7.94.
In the case of U14G C101U U126G, the “polymerase ribozyme fitness (log ratio)” value is -4.96.
The same measure for C15G G71A: -2.92; for C15G A50U: -3.73; for C15G C73U G107U G117C: -3.77.
For the variant U14G G60U G61A, the “polymerase ribozyme fitness (log ratio)” value was -3.09.
Regarding U14G G61C, the “polymerase ribozyme fitness (log ratio)” value was -4.21.
Take C15A G47U C64U C123U: the “polymerase ribozyme fitness (log ratio)” value was -2.43.
In the case of C15A U54G A90U it was -3.13; in that of C15G A29G C64U C76G C99U U112A, -6.38.
In the case of C13U A41U it was -0.968; in that of C13U G45U A84G A121U, 0.667.
Consider C15A G52U, for which the “polymerase ribozyme fitness (log ratio)” value is -3.6.
With C13U A83G, the “polymerase ribozyme fitness (log ratio)” value was determined as 0.0266.
In the case of C15G G44U C72U it was -4.59; in that of C15G A66G G69C C89U, -5.99; in that of C15A G48C C70U, -3.
On to U14G C56G A84U U106C G110U, for which the “polymerase ribozyme fitness (log ratio)” value was -5.11.
Regarding C15G G44C G47A G69U, the “polymerase ribozyme fitness (log ratio)” value was -3.06.
The same measure for U14G G45A C102U: -5.41; for C15A C40A: -3.27; for U14G U21G C40A G48C U106A: -5.19.
Take C15A G61U: the “polymerase ribozyme fitness (log ratio)” value was -0.806.
U14A G45A G47U G52A C86A: the “polymerase ribozyme fitness (log ratio)” value was -3.59.
C13U G35C: the “polymerase ribozyme fitness (log ratio)” value was -3.79.
As for C13U A27U C49A U130C U132C, the “polymerase ribozyme fitness (log ratio)” value was -2.53.
C15G C62U C79A A95G G117U: the “polymerase ribozyme fitness (log ratio)” value was -1.98.
On to C13U G52U G110U U133C, for which the “polymerase ribozyme fitness (log ratio)” value is -1.33.
As to C15U A41G, the “polymerase ribozyme fitness (log ratio)” value was -1.83.
C15A U33A G117A: the “polymerase ribozyme fitness (log ratio)” value is -5.68.
For U14G A91U, the “polymerase ribozyme fitness (log ratio)” value is -3.73.
With U14A C101U, the “polymerase ribozyme fitness (log ratio)” value was -3.07.
The same measure for C13U C56U A111G: 0.163.
Turning to C15U A18U G44U G69U G117C A121C, the “polymerase ribozyme fitness (log ratio)” value is -4.92.
As for C15A C56G, the “polymerase ribozyme fitness (log ratio)” value was -3.39.
The same measure for C13U C104U: -0.259; for C13U G48A C98U G122A G128C G135U: -1.66; for U14G C53A A84C: -2.21.
As for U14G C80U C89G, the “polymerase ribozyme fitness (log ratio)” value is -4.89.
Consider C15G C56U A83U C115G C123A, for which the “polymerase ribozyme fitness (log ratio)” value was -4.36.
In the case of U14A C56U C73U U112G G120C, the “polymerase ribozyme fitness (log ratio)” value was -1.15.
Consider C15U A41G G57C C62U U112A G122A G135A, for which the “polymerase ribozyme fitness (log ratio)” value is -1.87.
For the variant C13U C76U, the “polymerase ribozyme fitness (log ratio)” value is -0.121.
In the case of C13U C34U C40U A50G U59C it was -5.78.
The same measure for C15G A90C: -3.94; for C13U A91U: -0.839.
As to C13U G19A G45C U59C C82U U112A, the “polymerase ribozyme fitness (log ratio)” value amounted to 0.0802.
Take C13U U78C C115U: the “polymerase ribozyme fitness (log ratio)” value stood at 1.27.
The same measure for C15G C40U C56A C73U C80A C124G: -5.12; for C15G A43U C64A A84G C85G A90C U112G U132C: -6.82; for U14G G63A: -2.49.
The same measure for U14G C114U U132A: -7.19.
For C15A C72U, the “polymerase ribozyme fitness (log ratio)” value is -2.75.
The same measure for C15A C72A: -1.94; for C15U C28A C72U C76G A121C: -3.19.
The same measure for C13U A37C U55A: -0.3.
The same measure for C15G A43U C49U A74G: -4.91; for C13U G57A C102A G127C: -3.71.
As to C15A A43G C53U, the “polymerase ribozyme fitness (log ratio)” value is -3.68.
In the case of U14G G48U it was -2.8.
As for C13U G61A, the “polymerase ribozyme fitness (log ratio)” value was -0.508.
For C15A U54A C56G C72A, the “polymerase ribozyme fitness (log ratio)” value is -2.89.
On to C15U A24G A41G C115U, for which the “polymerase ribozyme fitness (log ratio)” value is -2.93.
For C15G G63C U96C G117C U130G, the “polymerase ribozyme fitness (log ratio)” value was -0.822.
Regarding C13U C34U, the “polymerase ribozyme fitness (log ratio)” value was -4.26.
The same measure for U14G G47A C89G C114G U116C G117A U133A: -6.43.
Regarding C15U A46G G69C C86G C124U, the “polymerase ribozyme fitness (log ratio)” value was -3.98.
For the variant C15A A16U C20A C89G G117U, the “polymerase ribozyme fitness (log ratio)” value was -3.6.
For C15G C98U A111G, the “polymerase ribozyme fitness (log ratio)” value was -5.41.
The same measure for C13U G122A: 0.447; for C13U C28G G120C: -1.05.
In the case of C15U A18G A37G U54A G65C A100U C115A it was -5.35; in that of C13U U59C A83U U96G, -1.05; in that of C15A A41C C104U, -2.15.
In the case of C15A G120C U129A it was -1.24; in that of C13U G45C C70U C124A, -0.034; in that of C13U A37U, 0.687.
With C15U C34A G45C, the “polymerase ribozyme fitness (log ratio)” value was -6.34.
In the case of C15U A16U G57A C82U U112A it was -5.23; in that of C13U G17A, -1.44; in that of C13U G19A G77C U81C, -3.54.
